We go through 1 substance from publication PMC2954053.

The target of assay [1] is TRAP150 (UniProt Q9Y2W1). As to the kind of experiment: anti-Flag co-IP, TRAP150 blot. The settings on record: reference: wild type Flag-PSF; sites T687.
Assay [2] has as its target BTF (UniProt Q9NYF8). As to the kind of experiment: anti-Flag co-IP, BTF blot. The conditions noted are these: reference: wild type Flag-PSF; sites T687.

On to PSF (from UniProt P23246) T687A, for which the “binding against the reference” value in assay [1] and in assay [2] was “weaker” throughout.
